Experiment in all cases: Inhibition of amidolytic activity by naturally occurring protease inhibitors
Holding throughout (details): 10 minutes incubation at 25° C. in 50 mM Tris-HCl, 100 mM NaCl, pH 7.4

The target of one assay is T1, Soli C1 (Solenopsis invicta, UniProt Q7SIG2).
T1 construct: Fourth instar larvae were extracted in a 1:10 (weight/volume) ratio of 20 mM Tris-HCl pH 7.4; from tissue; host or cells: whole Solenopsis invicta 4th instar larvae (buffer extract, acetone precipitation, Q Sepharose peak III, Mono Q, Superdex 75)
It counts as biochemical. How it is done:
(§1) Enzyme Assay—Generally, the amidolytic activities of each proteinase were measured with the substrates MeOSuc-Ala-Ala-Pro-Val-pNA (SEQ ID NO:8) and N-Suc-Ala-Ala-Pro-Phe-pNA (SEQ ID NO:7) in 0.05 M Tris-HCl and 100 mM NaCl pH 7.4 (assay buffer). Release of the pNA group was assayed by monitoring the optical density of the test solution at […]. Enzyme inhibition assays by protein inhibitors were conducted in the same assay buffer using an inhibitor concentration ranging from 0.02-50 nM with a 10 minute preincubation time and with the final enzyme concentration being 1.0 nM. All kinetic studies with substrates and inhibitors were performed at the optimum pH of the individual proteinases, utilizing the following buffers: 150 mM NaCl, 50 mM Tris-HCl pH 8.0 (E1); 150 mM NaCl, 50 mM CHES pH 9.5 (E2 and C2); and 150 mM NaCl, 50 mM CAPS pH 10.0 (C1).

A further assay relates to Soli E2. Type of assay: biochemical, Solenopsis invicta. On the procedure:
as §1

Another assay concerns Soli C2. It counts as biochemical, Solenopsis invicta. On the procedure:
as §1

For the next assay, the system named is Soli E1. Type of assay: biochemical, Solenopsis invicta. On the procedure: as §1

We go through three molecules from patent US6399759B1, “Ant proteases and methods of inhibition” (University of Georgia Research Foundation, Inc., priority 1999, dated 2002).

T1 sequence (Q7SIG2 whole entry): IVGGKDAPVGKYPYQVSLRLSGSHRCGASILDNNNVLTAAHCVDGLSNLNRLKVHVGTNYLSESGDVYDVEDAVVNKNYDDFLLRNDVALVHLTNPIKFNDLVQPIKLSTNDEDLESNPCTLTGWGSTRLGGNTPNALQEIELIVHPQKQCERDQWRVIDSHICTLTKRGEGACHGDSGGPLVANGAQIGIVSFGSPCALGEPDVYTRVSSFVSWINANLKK

B1: Soy Bean Trypsin Inhibitor I-S: soybean trypsin inhibitor Type I-S from Sigma (protein)
chain: DFVLDNEGNPLENGGTYYILSDITAFGGIRAAPTGNERCPLTVVQSRNELDKGIGTIISSPYRIRFIAEGHPLSLKFDSFAVIMLCVGIPTEWSVVEDLPEGPAVKIGENKDAMDGWFRLERVSDDEFNNYKLVFCPQQAEDDKCGDIGISIDHDDGTRRLVVSKNKPLVVQFQKLDKESL
As for B1, the IC50 with Soli C1 was 37 nM; with Soli E2, 5.58 nM; in the assay on Soli C2 it was 1.41 nM; in the assay on Soli E1, 4.22 nM.

B2: Eglin C: naturally occurring protease inhibitor obtained from Ciba Geigy (protein)
chain: TEFGSELKSFPEVVGKTVDQAREYFTLHYPQYDVYFLPEGSPVTLDLRYNRVRVFYNPGTNVVNHVPHVG
As to B2, the IC50 with Soli C1 was determined as 1.24 nM; with Soli E2 it was 1.89 nM; with Soli C2, 0.442 nM; in the assay with Soli E1, 3.93 nM.

B3: Lima Bean Trypsin Inhibitor: lima bean trypsin inhibitor from Sigma (protein)
chain: SGHHEHSTDXPSXSSKPCCXHCACTKSIPPQCRCTDLRLDSCHSACKSCICTLSIPAQCVCXXIXDFCYEPCKSSHSDDDNNN
modifications: not fully specified
B3: the “IC50 Soli C1” value with Soli C1 is “active”. For the same molecule, in the assay with Soli C2, the “IC50 Soli C2” value is given as “active”.

One may read the IC50 as the concentration that inhibits the measured activity by half.
